# B1: GST-tagged dTrbd^FL (enzyme, Drosophila melanogaster, UniProt Q9VH90 1-778, looked up)
# chain: MCDTKDDAQKWKCETCTYENYPSSLKCTMCQASKPLLNEDIFRLSPAQESCTVAEEAAAVEVAVMSPTPSSTCYSLQPQSQARQSNVADSEKWPCKVCTYLNWPRSLRCVQCCTKRGGEAIERGKKDMDNEADGDRAGEALQALRISGSEENLANKPVQLIGATASHRLSLSRGIDDATHLNNLANASHNQSQSQHRQPVLQQQMQLQLQPQQQRESSSSAAVPPQQQKQCYVSKWACNSCTYENWPRSIKCSMCGKTREREISGSQNDLHASSSLNSQEENQQQLQQPNVDTVSVNNSFNKKHIYQLGSSETINNCDTLQERQERRQRQIRRQVDWQWLNACLGVVENNYSAVEAYLSCGGNPARSLTSTEIAALNRNSAFDVGHTLIHLAIRFHREEMLPMLLDQISGSGPGIKRVPSYVAPDLAADIRRHFANTLRLRKSGLPCHYVQKHATFALPAEIEELPIPIQEQLYDELLDRDAQKQLETPPPALNWSLEITARLSSRMFVLWNRSAGDCLLDSAMQATWGVFDRDNILRRALADTLHQCGHVFFTRWKEYEMLQASMLHFTLEDSQFEEDWSTLLSLAGQPGSSLEQLHIFALAHILRRPIIVYGVKYVKSFRGEDIGYARFEGVYLPLFWDQNFCTKSPIALGYTRGHFSALVPMEPFTRIDGRRDDVEDVTYLPLMDCELKLLPIHFLTQSEVGNEESMMRQWLDVCVTDGGLLVAQQKLSKRPLLVAQMLEEWLNHYRRIAQVITAPFIRRPQITHYSSDGDSDEE
# notes: dTrbd, Drosophila deubiquitinase, full length; also called GST-dTrbd^FL; source: E. coli BL21, purified (Glutathione Sepharose 4B)
# Molecular target: the molecule itself
# Experiment: SDD-AGE; purified proteins loaded in 0.5 x TBE, 10% glycerol, 2% SDS at room temperature; 1.5% agarose gel with 0.1% SDS; immunoblot
protein,measurement,value
B1,binding result,binds
